Consider three substances from article PMC2112137.

Experiment [1] concerns the target rabbit skeletal muscle F-actin (rabbit) (UniProt P68135). The experiment in a line: co-sedimentation.
Experiment [2] deals with plasmodial actin of Physarum polycephalum (pure plasmodial F-actin) (Physarum polycephalum). In words: light scattering.
For experiment [3] the target is unchanged. In words: co-sedimentation.
The target in experiment [4] is F-actin-36,000-dalton factor complex (rabbit skeletal F-actin plus Physarum 36,000-dalton factor) (rabbit | Physarum polycephalum) (UniProt P68135). The experiment in a line: co-sedimentation.

With “36,000-dalton factor (novel 36,000-dalton actin-binding protein from Physarum plasmodia) (natural protein)”, in experiment [1], the factor/actin weight ratio in the pellet (g/g (factor/actin)) amounted to 0.12 and the stoichiometry N (mol actin per mol 36,000-dalton factor) was found to be 6.6.
For the substance “heavy meromyosin (HMM) of rabbit skeletal muscle myosin (complex)”, in experiment [2], the HMM bound by 0.1 mg/ml F-actin (untreated actin) was 0.362 mg/mL and the stoichiometry N (mol actin monomer per mol HMM) is 2. Also, in experiment [3], the Actin/HMM binding ratio was found to be 0.192 g/g and the stoichiometry N (mol actin per mol HMM) turned out to be 2.
With “rabbit skeletal muscle troponin (complex)”, the Bound TN (%) in experiment [4] came to 25.8%.
